Test results: publication PMC2734569, “Functional mapping of the fission yeast DNA polymerase δ B-subunit Cdc1 by site-directed and random pentapeptide insertion mutagenesis” (BMC Molecular Biology, 2009)

Columns and labels:
Assay in all cases: two-hybrid; LexA-Cdc1 bait (pBTM116 or pBTM116BN) with Gal4 activation domain-Cdc27 prey (pGAD2F-Cdc27) in S. cerevisiae CTY10-5d; ONPG liquid culture beta-galactosidase assay, mean of triplicates, as percent of wild-type Cdc1
Conditions in all cases: partners not purified
[1] = molecular target: T1, Cdc1-E1 (Schizosaccharomyces pombe, UniProt P87324 1-462, Ser-GlyValProGlnSer-Asp)
T1 construct: Cdc1, S. pombe, with a pentapeptide inserted after residue 66; source: yeast two-hybrid fusion, in S. cerevisiae CTY10-5d
T1 sequence (looked up): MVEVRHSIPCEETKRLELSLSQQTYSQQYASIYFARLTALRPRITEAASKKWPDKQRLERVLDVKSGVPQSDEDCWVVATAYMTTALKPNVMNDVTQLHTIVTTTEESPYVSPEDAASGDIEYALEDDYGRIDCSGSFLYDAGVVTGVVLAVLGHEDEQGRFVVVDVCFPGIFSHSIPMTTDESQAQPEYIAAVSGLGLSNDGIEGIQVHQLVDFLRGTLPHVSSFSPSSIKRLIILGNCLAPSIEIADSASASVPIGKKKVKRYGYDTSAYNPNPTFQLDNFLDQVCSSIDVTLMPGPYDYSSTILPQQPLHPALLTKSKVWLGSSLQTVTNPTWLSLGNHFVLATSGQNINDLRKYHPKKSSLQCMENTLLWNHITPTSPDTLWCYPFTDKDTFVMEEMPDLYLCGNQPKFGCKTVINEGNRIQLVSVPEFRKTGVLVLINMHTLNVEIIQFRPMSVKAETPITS

[2] = molecular target: T2, Cdc1-J1 (Schizosaccharomyces pombe, UniProt P87324 1-462, Thr-GlyValProLeuThr-Gly)
T2 construct: Cdc1, S. pombe, with a pentapeptide inserted after residue 141; source: yeast two-hybrid fusion, in S. cerevisiae CTY10-5d
T2 sequence (looked up): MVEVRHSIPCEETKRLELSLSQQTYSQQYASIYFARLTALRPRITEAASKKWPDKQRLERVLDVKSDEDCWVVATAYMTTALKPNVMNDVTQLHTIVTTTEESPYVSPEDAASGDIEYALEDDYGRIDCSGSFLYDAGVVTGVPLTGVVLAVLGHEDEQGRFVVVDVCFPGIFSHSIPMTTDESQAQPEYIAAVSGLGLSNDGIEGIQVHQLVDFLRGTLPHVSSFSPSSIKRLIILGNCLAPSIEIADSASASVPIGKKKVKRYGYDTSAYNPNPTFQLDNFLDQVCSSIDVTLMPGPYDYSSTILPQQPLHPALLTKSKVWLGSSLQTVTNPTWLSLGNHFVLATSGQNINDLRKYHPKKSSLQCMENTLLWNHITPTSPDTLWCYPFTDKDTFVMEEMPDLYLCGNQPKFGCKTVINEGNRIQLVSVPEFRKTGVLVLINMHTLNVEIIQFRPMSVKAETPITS

[3] = molecular target: T3, Cdc1-J2 (Schizosaccharomyces pombe, UniProt P87324 1-462, Tyr-ArgGlyThrProTyr-Ser)
T3 construct: Cdc1, S. pombe, with a pentapeptide inserted after residue 25; also called J18; J20; source: yeast two-hybrid fusion, in S. cerevisiae CTY10-5d
T3 sequence (looked up): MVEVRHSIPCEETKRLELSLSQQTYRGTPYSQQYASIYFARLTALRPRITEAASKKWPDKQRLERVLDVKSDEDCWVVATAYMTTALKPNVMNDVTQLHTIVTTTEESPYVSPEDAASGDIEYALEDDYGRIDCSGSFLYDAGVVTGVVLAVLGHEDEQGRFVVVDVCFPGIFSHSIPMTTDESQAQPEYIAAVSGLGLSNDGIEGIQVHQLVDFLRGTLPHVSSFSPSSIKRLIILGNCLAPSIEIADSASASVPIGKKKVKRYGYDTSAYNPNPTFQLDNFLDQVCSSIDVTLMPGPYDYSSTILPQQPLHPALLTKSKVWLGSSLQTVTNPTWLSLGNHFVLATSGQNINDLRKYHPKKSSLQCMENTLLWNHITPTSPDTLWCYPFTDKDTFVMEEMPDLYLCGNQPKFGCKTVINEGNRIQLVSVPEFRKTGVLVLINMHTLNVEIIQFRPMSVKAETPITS

[4] = molecular target: T4, Cdc1-J3 (Schizosaccharomyces pombe, UniProt P87324 1-462, Leu-GlyValProLeuLeu-Asp)
T4 construct: Cdc1, S. pombe, with a pentapeptide inserted after residue 62; also called E3; E8; source: yeast two-hybrid fusion, in S. cerevisiae CTY10-5d
T4 sequence (looked up): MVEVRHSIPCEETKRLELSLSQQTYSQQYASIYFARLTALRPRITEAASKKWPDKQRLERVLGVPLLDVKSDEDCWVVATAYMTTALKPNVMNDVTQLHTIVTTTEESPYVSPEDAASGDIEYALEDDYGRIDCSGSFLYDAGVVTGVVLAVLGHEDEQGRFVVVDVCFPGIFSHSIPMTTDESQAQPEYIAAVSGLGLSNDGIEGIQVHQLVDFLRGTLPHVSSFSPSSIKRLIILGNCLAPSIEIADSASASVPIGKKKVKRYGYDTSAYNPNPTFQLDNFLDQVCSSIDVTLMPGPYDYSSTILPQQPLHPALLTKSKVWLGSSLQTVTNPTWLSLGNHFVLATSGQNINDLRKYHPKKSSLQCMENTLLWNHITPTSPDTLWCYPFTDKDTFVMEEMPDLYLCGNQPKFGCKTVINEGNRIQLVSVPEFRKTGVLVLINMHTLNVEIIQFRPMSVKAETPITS

two-hybrid beta-galactosidase activity, % of wild-type Cdc1 [1]: 1%
two-hybrid beta-galactosidase activity, % of wild-type Cdc1 [2]: < 1%
two-hybrid beta-galactosidase activity, % of wild-type Cdc1 [3]: < 1%
two-hybrid beta-galactosidase activity, % of wild-type Cdc1 [4]: < 1%
B1: Cdc27 (fission yeast DNA polymerase delta C-subunit) (natural protein, Schizosaccharomyces pombe, UniProt P30261 1-372, looked up)
chain: MEEWRNFLDIKVINESSLVTVDNLSLQLDISSEKAQEYLNMFYQGNDFLYPIYLIHGQPIDDEINLEIDEESQPISNFPVLQYILCDKSSLQEKQSRLKSGYKTVIFALSSAPLSDFDELLPAVYEIREKDVLYKKEDADKYGFIFNENSVPRVLKKAPSTHSPQLSVPSKTSTIDKTDTRSTEKTKGKDIFSNARNQKGNSSRKNKKAPLENHKEKEPLLPKEEKLSEQAKRERDDLKNIMQLEDESVSTTSVHDSEDDNLDSNNFQLEIGTEAKSAAPDEPQEIIKSVSGGKRRGKRKVKKYATTKDEEGFLVTKEEEVWESFSEDENISTGTSNVVRNKPTTVNIATKKKNTAQSKPQQKSIMSFFGKK
notes: DNA polymerase delta C-subunit Cdc27, S. pombe; prey plasmid pGAD2F-Cdc27; also called pGAD2F-Cdc27; source: yeast two-hybrid fusion, in S. cerevisiae CTY10-5d
